The values below are quoted from earlier work in article PMC11854596.

This data set has as its target 53BP1 BRCT (Homo sapiens) (UniProt Q12888).

Sequence of 53BP1 BRCT (Homo sapiens) (Q12888 1714-1972): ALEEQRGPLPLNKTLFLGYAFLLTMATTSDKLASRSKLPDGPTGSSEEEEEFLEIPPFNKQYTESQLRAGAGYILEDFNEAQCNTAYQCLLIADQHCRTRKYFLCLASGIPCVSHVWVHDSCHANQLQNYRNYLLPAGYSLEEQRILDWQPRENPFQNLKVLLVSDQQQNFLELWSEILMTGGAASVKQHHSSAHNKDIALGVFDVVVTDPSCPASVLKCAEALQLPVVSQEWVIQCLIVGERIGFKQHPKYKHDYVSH

The Kd is the free concentration of one partner at which half of the binding sites on the other are occupied at equilibrium, for simple one-to-one binding. For γH2AX (from UniProt P16104), the Kd is 2700 nM.
